Drawing on PMC11272045, this text covers Kd for 1 substance.

This experiment has as its target recombinant his-tag subtilisin-like protease-1 (SspA-1) (Streptococcus suis serotype 2 strain 05ZYH33). Description: MST.

As to “recombinant glutathione S-transferase (GST)-tagged human TLR2 (from UniProt O60603 21-784) (receptor)”, the Kd (as a rule, the equilibrium constant for the complex coming apart) came to 0.0243 µM.
